The record followed here is patent US20170306033A1 (Amgen, published 2017).

In one test the target is T1, human PAC1 receptor (human, UniProt P41586 21-468).
T1 sequence: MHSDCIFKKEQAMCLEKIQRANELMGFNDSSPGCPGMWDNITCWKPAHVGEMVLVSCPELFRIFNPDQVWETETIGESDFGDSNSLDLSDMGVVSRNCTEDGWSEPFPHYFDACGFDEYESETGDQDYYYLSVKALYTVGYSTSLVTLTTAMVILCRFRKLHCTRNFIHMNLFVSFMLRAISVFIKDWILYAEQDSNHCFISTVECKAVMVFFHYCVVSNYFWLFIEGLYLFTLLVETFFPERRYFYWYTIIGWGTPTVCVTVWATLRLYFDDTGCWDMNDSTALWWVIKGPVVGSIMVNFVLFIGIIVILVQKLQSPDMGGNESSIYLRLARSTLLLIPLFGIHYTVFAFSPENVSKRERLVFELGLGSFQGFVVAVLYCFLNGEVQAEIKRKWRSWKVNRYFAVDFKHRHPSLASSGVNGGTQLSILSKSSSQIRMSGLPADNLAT
Put plainly: cell-based or functional assay.

In a further test the target is human CGRP receptor (human, UniProt Q16602 23-461; O60894 27-148). The test can be described thus: cell-based or functional assay.
Chain of human CGRP receptor (Q16602 23-461 limits assumed, chain 1 of 2): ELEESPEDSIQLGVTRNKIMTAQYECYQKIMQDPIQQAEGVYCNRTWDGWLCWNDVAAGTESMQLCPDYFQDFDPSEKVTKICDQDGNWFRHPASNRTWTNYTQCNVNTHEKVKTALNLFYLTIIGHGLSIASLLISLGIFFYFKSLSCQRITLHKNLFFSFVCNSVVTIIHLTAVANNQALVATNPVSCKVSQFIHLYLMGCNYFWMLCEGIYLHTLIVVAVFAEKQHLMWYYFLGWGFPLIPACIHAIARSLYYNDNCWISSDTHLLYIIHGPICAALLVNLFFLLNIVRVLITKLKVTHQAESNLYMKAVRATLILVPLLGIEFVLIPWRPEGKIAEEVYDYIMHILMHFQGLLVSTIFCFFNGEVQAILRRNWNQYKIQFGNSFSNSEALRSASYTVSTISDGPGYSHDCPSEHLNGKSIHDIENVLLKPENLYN
Chain of human CGRP receptor (O60894 27-148 limits assumed, chain 2 of 2): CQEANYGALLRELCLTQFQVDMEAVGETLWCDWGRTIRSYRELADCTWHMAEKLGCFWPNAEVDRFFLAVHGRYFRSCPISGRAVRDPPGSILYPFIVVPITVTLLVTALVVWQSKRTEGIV

B1: iPS:327270 (bispecific antibody, human IgG1, kappa, lambda, N297G)
light 1: EIVLTQSPATLSLSPGERATLSCRASQSVGRSLHWYQQKPGQAPRLLIKYASQSLSGIPARFSGSGSGTDFTLTISSLEPEDFAVYYCHQSSRLPFTFGPGTKVDIKRTVAAPSVFIFPPSDEQLKSGTASVVCLLNNFYPREAKVQWKVDNALQSGNSQESVTEQDSKDSTYSLESTLTLSKADYEKHKVYACEVTHQGLSSPVTKSFNRGEC
heavy 1: not shown
light 2: not shown
heavy 2: not shown
Turning to B1, the “% inhibition of human PAC1” value with human PAC1 receptor is 82%. Besides, the “% inhibition of human CGRPR” value with human CGRP receptor was 71%.

B2: iPS:327112 (bispecific antibody, human IgG1, kappa, lambda, N297G)
light 1: EIVLTQSPATLSLSPGERATLSCRASQSVGRSLHWYQQKPGQAPRLLIKYASQSLSGIPARFSGSGSGTDFTLTISSLEPEDFAVYYCHQSSRLPFTFGPGTKVDIKRTVAAPSVFIFPPSDEQLKSGTASVVCLLNNFYPREAKVQWKVDNALQSGNSQESVTEQDSKDSTYSLESTLTLSKADYEKHKVYACEVTHQGLSSPVTKSFNRGEC
heavy 1: not shown
light 2: not shown
heavy 2: not shown
Turning to B2, the “% inhibition of human PAC1” value with human PAC1 receptor is 104%. The “% inhibition of human CGRPR” value in the test with human CGRP receptor stood at 84%.

B3: iPS:327111 (bispecific antibody, human IgG1, kappa, lambda, N297G)
light 1: DIQLTQSPSFLSASVGDRVTITCRASQSIGRSLHWYQQKPGKAPKLLIKYASQSLSGVPSRFSGSGSGTEFTLTISSLQPEDFATYYCHQSSRLPFTFGPGTKVDIKRTVAAPSVFIFPPSDEQLKSGTASVVCLLNNFYPREAKVQWKVDNALQSGNSQESVTEQDSKDSTYSLESTLTLSKADYEKHKVYACEVTHQGLSSPVTKSFNRGEC
heavy 1: not shown
light 2: not shown
heavy 2: not shown
Take B3: the “% inhibition of human PAC1” value with human PAC1 receptor is 65%. Moreover, in the test with human CGRP receptor, the “% inhibition of human CGRPR” value was found to be 88%.

B4: iPS:327272 (bispecific antibody, human IgG1, kappa, lambda, N297G)
light 1: DIQMTQSPSSLSASVGDRITITCRASQSISRYLNWYQQKPGKAPKLLIYAASSLQSGIPSRFSGSGSGTDFTLTINSLQPEDFATYFCQQSYSPPFTFGEGTKVDIKRTVAAPSVFIFPPSDEQLKSGTASVVCLLNNFYPREAKVQWKVDNALQSGNSQESVTEQDSKDSTYSLESTLTLSKADYEKHKVYACEVTHQGLSSPVTKSFNRGEC
heavy 1: not shown
light 2: not shown
heavy 2: EVQLVESGGGLVKPGGSLRLSCAASGFTFSNAWMSWVRQAPGKELEWVGRIKSKTDGGTTDYTAPVKGRFTISRDDSKNTLYLQMNSLKAEDTAVYYCTTDRTGYSISWSSYYYYYGMDVWGQGTTVTVSSASTKGPSVFPLAPSSKSTSGGTAALGCLVKDYFPEPVTVSWNSGALTSGVHTFPAVLQSSGLYSLESVVTVPSSSLGTQTYICNVNHKPSNTKVDKKVEPKSCDKTHTCPPCPAPELLGGPSVFLFPPKPKDTLMISRTPEVTCVVVDVSHEDPEVKFNWYVDGVEVHNAKTKPCEEQYGSTYRCVSVLTVLHQDWLNGKEYKCKVSNKALPAPIEKTISKAKGQPREPQVYTLPPSRKEMTKNQVSLTCLVKGFYPSDIAVEWESNGQPENNYKTTPPVLKSDGSFFLYSKLTVDKSRWQQGNVFSCSVMHEALHNHYTQKSLSLSPGK
As to B4, in the test with human PAC1 receptor, the “% inhibition of human PAC1” value came out at 62%. The “% inhibition of human CGRPR” value with human CGRP receptor is 81%.

B5: iPS:327273 (bispecific antibody, human IgG1, kappa, lambda, N297G)
light 1: not shown
heavy 1: not shown
light 2: not shown
heavy 2: EVQLVESGGGLVKPGGSLRLSCAASGFTFSNAWMSWVRQAPGKELEWVGRIKSKTDGGTTDYTAPVKGRFTISRDDSKNTLYLQMNSLKAEDTAVYYCTTDRTGYSISWSSYYYYYGMDVWGQGTTVTVSSASTKGPSVFPLAPSSKSTSGGTAALGCLVKDYFPEPVTVSWNSGALTSGVHTFPAVLQSSGLYSLESVVTVPSSSLGTQTYICNVNHKPSNTKVDKKVEPKSCDKTHTCPPCPAPELLGGPSVFLFPPKPKDTLMISRTPEVTCVVVDVSHEDPEVKFNWYVDGVEVHNAKTKPCEEQYGSTYRCVSVLTVLHQDWLNGKEYKCKVSNKALPAPIEKTISKAKGQPREPQVYTLPPSRKEMTKNQVSLTCLVKGFYPSDIAVEWESNGQPENNYKTTPPVLKSDGSFFLYSKLTVDKSRWQQGNVFSCSVMHEALHNHYTQKSLSLSPGK
With B5, the “% inhibition of human PAC1” value in the test with human PAC1 receptor worked out at 10%. Moreover, in the test with human CGRP receptor, the “% inhibition of human CGRPR” value was 81%.
